Source: paper PMC5833700, “MIF inhibits the formation and toxicity of misfolded SOD1 amyloid aggregates: implications for familial ALS” (Cell Death & Disease, 2018)

B1: macrophage migration inhibitory factor, wild type (MIF^WT) (natural protein, human, UniProt P14174 1-115, looked up)
chain: MPMFIVNTNVPRASVPDGFLSELTQQLAQATGKPPQYIAVHVVPDQLMAFGGSSEPCALCSLHSIGKIGGAQNRSYSKLLCGLLAERLRISPDRVYINYYDMNAANVGWNNSTFA
notes: No tag is mentioned; Surmise: the initiator methionine is removed in E. coli, since tautomerase activity was measured; also called recombinant MIF; hMIF; source: E. coli BL21 (DE3), purified (Capto Q anion exchange, Capto S cation exchange)
B2: locked-trimeric MIF mutant MIF^N110C (natural protein)
chain: PMFIVNTNVPRASVPDGFLSELTQQLAQATGKPPQYIAVHVVPDQLMAFGGSSEPCALCSLHSIGKIGGAQNRSYSKLLCGLLAERLRISPDRVYINYYDMNAANVGWNCSTFA
modifications: disulfide bridge of the introduced cysteine (N110C) with Cys-81 of an adjacent subunit

Legend:
[1] = target: T1, poly-histidine tagged apo-SOD1^WT (human, UniProt P00441 1-154); assay: SPR; ProteOn XPR36; poly-histidine tagged apo-SOD1^WT (1 µg, 736 RU) immobilised on tris-NTA HTG chip; MIF as analyte, 31-1000 nM, 25 µl/min; PBST (PBS 300 mM NaCl, 0.05% Tween-20); 25 °C; HTB1 channel subtracted; apparent affinity from steady-state values; conditions: both partners purified
T1 construct: Cu/Zn superoxide dismutase (SOD1), human, wild type, codon-optimised, in the pHIS1 vector; Apo form; It was captured on the tris-NTA chip by its His tag; also called Cu/Zn superoxide dismutase; source: E. coli BL21, purified (HisTrap FF); not shown: His6, N-terminal, kept
T1 sequence (P00441 whole entry): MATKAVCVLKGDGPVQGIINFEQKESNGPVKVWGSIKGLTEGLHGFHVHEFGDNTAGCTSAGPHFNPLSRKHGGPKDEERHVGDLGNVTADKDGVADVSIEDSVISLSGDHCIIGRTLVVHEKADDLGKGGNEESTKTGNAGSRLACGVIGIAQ

[2] = target: the molecule itself; assay: SDS-PAGE without prior crosslinking; 10 µM recombinant MIF, non-crosslinked control; sample buffer without β-mercaptoethanol; 13% SDS-PAGE and anti-MIF immunoblot

| Binder | Kd [1] [nM] | stoichiometry N [2] |
| --- | --- | --- |
| B1 | 1300 | – |
| B2 | 548 | 3 |
